Biological target: human suPAR (hsuPAR) recombinant protein (human, UniProt Q03405 23-303)
Assay: BLI; avid

Chain of human suPAR (hsuPAR) recombinant protein (Q03405 23-303): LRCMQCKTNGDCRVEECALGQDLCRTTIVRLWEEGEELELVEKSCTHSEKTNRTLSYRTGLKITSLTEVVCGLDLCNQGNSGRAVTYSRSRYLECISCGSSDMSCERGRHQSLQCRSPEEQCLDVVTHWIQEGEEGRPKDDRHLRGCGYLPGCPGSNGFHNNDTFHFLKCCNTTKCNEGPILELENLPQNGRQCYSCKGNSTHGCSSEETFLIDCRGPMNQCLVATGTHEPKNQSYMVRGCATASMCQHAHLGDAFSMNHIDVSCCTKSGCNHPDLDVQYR

Kd: < 1 pM
B1: WAb0014 (antibody, V domains shown)
VH: QVQLVQSGAEVKKPGASVKVSCKASGYTFTNYYMHWVRQAPGQGLEWMGWIDHESGSTIYAQKFQGRVTMTRDTSTSTVYMELSSLRSEDTAVYYCARGYDVDWFVYWGQGTLVTVSS
VL: DIQMTQSPSSLSASVGDRVTITCSARQSVSYMYWYQQKPGKAPKLLIYRTSNLASGVPSRFSGSGSGTDFTLTISSLQPEDFATYYCQQYHSYPPTFGGGTKVEIKR

— patent publication US20250215104A1 (published 2025)
